# Results: paper PMC3469515 (Molecular Biology of the Cell, 2012)
# B1: Mid1p construct M1-14 (residues 1–578) (domain or fragment, S. pombe, UniProt P78953 1-578, looked up)
# chain: MKEQEFSYREAKDVSLDSKGLENSFLSSPNREKTPLFFEGNSNETSGYDQTKNFTHGDGDMSLGNLSELNVATDLLESLDLRSMYMHGYGHLDSSFSSQHSPDNRKRMSSTSVFKRINSEEEGRIPSLTYSAGTMNSTSSSTASLKGADIVADYETFNPDQNLAELSFDRSKSSRKRAVEVAEFSRAKTMSPLEYTVQHPYQSHNELSTNPARARAGSVPNLARIPSDVKPVPPAHLSASSTVGPRILPSLPKDTTEDNPALERVETTASLDMDYKPLEPLAPIQEAPVEDTSEPFSSVPEATLDDSDISTESLRKKVLAKMEAKRISSGSSYASTLRKVYDFSELSLPTNGKDYDELYLQSSRNSEPEISTIINDSLQQENMDEDISATSIPKSQAAYGHGSVTYHEVPRYNLTSASVGYSISSQRGRIKSSSTIDNLSAILSSEDLRHPSMQPVPGTKRTYSNYCENEPNKSSQSLVSSESHNVEGWNYSETGTVGFYDPSAEISASIDELRQSTPVARDSELLSRAHSFDLNRLDLPSQDKSTSYEVPNGTENQSPRPVTSLGFVNETFFEEKPK
# Biological target: the molecule itself
# Assay: AUC
protein,measurement,value
B1,stoichiometry N,> 8
